From the supplement of paper PMC11246515
± gives the standard deviation of the averaged measurements.

Test: total protein half-life in vivo (active degradation + dilution); higher = more stable protein
[1] = E. coli NCM3722 delta-clpP delta-lon delta-hslV, growth: N-lim chemostat, doubling time 6 h
[2] = E. coli NCM3722 delta-clpP, growth: N-lim chemostat, doubling time 6 h
[3] = E. coli NCM3722 delta-hslV, growth: N-lim chemostat, doubling time 6 h
[4] = E. coli NCM3722 delta-lon, growth: N-lim chemostat, doubling time 6 h
[5] = E. coli NCM3722 delta-smpB, growth: N-lim chemostat, doubling time 6 h
[6] = wild type E. coli NCM3722, growth: C-lim chemostat, doubling time 3 h
[7] = wild type E. coli NCM3722, growth: C-lim chemostat, doubling time 6 h
[8] = wild type E. coli NCM3722, growth: C-lim chemostat, doubling time 12 h
[9] = wild type E. coli NCM3722, growth: N-lim chemostat, doubling time 6 h
[10] = wild type E. coli NCM3722, growth: N-lim chemostat, doubling time 12 h
[11] = wild type E. coli NCM3722, growth: P-lim chemostat, doubling time 6 h
[12] = wild type E. coli NCM3722, growth: P-lim chemostat, doubling time 12 h

Row | Sequence | total protein half-life in vivo [1] | total protein half-life in vivo [2] | total protein half-life in vivo [3] | total protein half-life in vivo [4] | total protein half-life in vivo [5] | total protein half-life in vivo [6] | total protein half-life in vivo [7] | total protein half-life in vivo [8] | total protein half-life in vivo [9] | total protein half-life in vivo [10] | total protein half-life in vivo [11] | total protein half-life in vivo [12]
1 | MQQLQNIIETAFERRAEITPANADTVTREAVNQVIALLDSGALRVAEKIDGQWVTHQWLKKAVLLSFRINDNQVIEGAESRYFDKVPMKFADYDEARFQKEGFRVVPPAAVRQGAFIARNTVLMPSYVNIGAYVDEGTMVDTWATVGSCAQIGKNVHLSGGVGIGGVLEPLQANPTIIEDNCFIGARSEVVEGVIVEEGSVISMGVYIGQSTRIYDRETGEIHYGRVPAGSVVVSGNLPSKDGKYSLYCAVIVKKVDAKTRGKVGINELLRTID [P0A9D8] | 4.878 ± 0.043 h | 4.24 ± 0.13 h | 4.13 ± 0.23 h | 4.507 ± 0.042 h | 4.12 ± 0.12 h | 2.97 ± 0.074 h | 5.34 ± 0.39 h | 9.591 ± 0.062 h | 4.19 ± 0.11 h | 6.89 ± 0.2 h | 5.91 ± 0.12 h | 11 ± 0.57 h
2 | MKSLRLMLCAMPLMLTGCSTMSSVNWSAANPWNWFGSSTKVSEQGVGELTASTPLQEQAIADALDGDYRLRSGMKTANGNVVRFFEVMKGDNVAMVINGDQGTISRIDVLDSDIPADTGVKIGTPFSDLYSKAFGNCQKADGDDNRAVECKAEGSQHISYQFSGEWRGPEGLMPSDDTLKNWKVSKIIWRR | 5.96 ± 0.15 h | 6.484 ± 0.023 h | 7.579 ± 0.065 h | – | 6.4 ± 0.55 h | 3.24 ± 0.74 h | 6.151 ± 0.0073 h | 14.8 ± 0.17 h | 6.63 ± 0.47 h | – | 6.68 ± 0.71 h | –
3 | MTQENEIKRPIQDLEHEPIKPLDNSEKGSKVSQALETVTTTAEKVQRQPVIAHLIRATERFNDRLGNQFGAAITYFSFLSMIPILMVSFAAGGFVLASHPMLLQDIFDKILQNISDPTLAATLKNTINTAVQQRTTVGLVGLAVALYSGINWMGNLREAIRAQSRDVWERSPQDQEKFWVKYLRDFISLIGLLIALIVTLSITSVAGSAQQMIISALHLNSIEWLKPTWRLIGLAISIFANYLLFFWIFWRLPRHRPRKKALIRGTFLAAIGFEVIKIVMTYTLPSLMKSPSGAAFGSVLGLMAFFYFFARLTLFCAAWIATAEYKDDPRMPGKTQP | 4.96 ± 0.058 h | 4.8 ± 0.18 h | 3.99 ± 0.46 h | 3.56 ± 0.56 h | 4.74 ± 0.46 h | 2.41 ± 0.45 h | 4.07 ± 0.12 h | 7.18 ± 1.4 h | 4.21 ± 0.15 h | 6.7 ± 0.46 h | 4.02 ± 0.11 h | 6.92 ± 0.24 h
4 | MNNEPLRPDPDRLLEQTAAPHRGKLKVFFGACAGVGKTWAMLAEAQRLRAQGLDIVVGVVETHGRKDTAAMLEGLAVLPLKRQAYRGRHISEFDLDAALARRPALILMDELAHSNAPGSRHPKRWQDIEELLEAGIDVFTTVNVQHLESLNDVVSGVTGIQVRETVPDPFFDAADDVVLVDLPPDDLRQRLKEGKVYIAGQAERAIEHFFRKGNLIALRELALRRTADRVDEQMRAWRGHPGEEKVWHTRDAILLCIGHNTGSEKLVRAAARLASRLGSVWHAVYVETPALHRLPEKKRRAILSALRLAQELGAETATLSDPAEEKAVVRYAREHNLGKIILGRPASRRWWRRETFADRLARIAPDLDQVLVALDEPPARTINNAPDNRSFKDKWRVQIQGCVVAAALCAVITLIAMQWLMAFDAANLVMLYLLGVVVVALFYGRWPSVVATVINVVSFDLFFIAPRGTLAVSDVQYLLTFAVMLTVGLVIGNLTAGVRYQARVARYREQRTRHLYEMSKALAVGRSPQDIAATSEQFIASTFHARSQVLLPDDNGKLQPLTHPQGMTPWDDAIAQWSFDKGLPAGAGTDTLPGVPYQILPLKSGEKTYGLVVVEPGNLRQLMIPEQQRLLETFTLLVANALERLTLTASEEQARMASEREQIRNALLAALSHDLRTPLTVLFGQAEILTLDLASEGSPHARQASEIRQHVLNTTRLVNNLLDMARIQSGGFNLKKEWLTLEEVVGSALQMLEPGLSSPINLSLPEPLTLIHVDGPLFERVLINLLENAVKYAGAQAEIGIDAHVEGENLQLDVWDNGPGLPPGQEQTIFDKFARGNKESAVPGVGLGLAICRAIVDVHGGTITAFNRPEGGACFRVTLPQQTAPELEEFHEDM | 6.66 ± 0.19 h | 6.31 ± 0.4 h | 6.32 ± 0.48 h | 5.21 ± 0.13 h | 5.88 ± 0.37 h | 3.44 ± 0.035 h | 6 ± 0.74 h | 12.1 ± 1 h | 5.56 ± 0.21 h | 10.7 ± 0.66 h | 6.348 ± 0.059 h | 11.6 ± 0.51 h
5 | MMINVQTVAVIGSGTMGAGIAEVAASHGHQVLLYDISAEALTRAIDGIHARLNSRVTRGKLTAETCERTLKRLIPVTDIHALAAADLVIEAASERLEVKKALFAQLAEVCPPQTLLTTNTSSISITAIAAEIKNPERVAGLHFFNPAPVMKLVEVVSGLATAAEVVEQLCELTLSWGKQPVRCHSTPGFIVNRVARPYYSEAWRALEEQVAAPEVIDAALRDGAGFPMGPLELTDLIGQDVNFAVTCSVFNAFWQERRFLPSLVQQELVIGGRLGKKSGLGVYDWRAEREAVVGLEAVSDSFSPMKVEKKSDGVTEIDDVLLIETQGETAQALAIRLARPVVVIDKMAGKVVTIAAAAVNPDSATRKAIYYLQQQGKTVLQIADYPGMLIWRTVAMIINEALDALQKGVASEQDIDTAMRLGVNYPYGPLAWGAQLGWQRILRLLENLQHHYGEERYRPCSLLRQRALLESGYES | > 8 h | – | – | – | – | – | – | – | – | – | – | –
6 | MNGLLRIRQRYQGLAQSDKKLADYLLLQPDTARHLSSQQLANEAGVSQSSVVKFAQKLGYKGFPALKLALSEALASQPESPSVPIHNQIRGDDPLRLVGEKLIKENTAAMYATLNVNSEEKLHECVTMLRSARRIILTGIGASGLVAQNFAWKLMKIGFNAAAVRDMHALLATVQASSPDDLLLAISYTGVRRELNLAADEMLRVGGKVLAITGFTPNALQQRASHCLYTIAEEQATNSASISACHAQGMLTDLLFIALIQQDLELAPERIRHSEALVKKLV | 5.79 ± 0.53 h | 4.3186 ± 0.00083 h | 2.83 ± 0.031 h | 3.72 ± 0.33 h | 3.5 ± 0.69 h | 2.44 ± 0.087 h | 4.31 ± 0.2 h | 5.65 ± 1.1 h | 2.8 ± 0.11 h | 4.19 ± 0.29 h | 3.73 ± 0.18 h | 7.58 ± 1.8 h
7 | MTEQATTTDELAFTRPYGEQEKQILTAEAVEFLTELVTHFTPQRNKLLAARIQQQQDIDNGTLPDFISETASIRDADWKIRGIPADLEDRRVEITGPVERKMVINALNANVKVFMADFEDSLAPDWNKVIDGQINLRDAVNGTISYTNEAGKIYQLKPNPAVLICRVRGLHLPEKHVTWRGEAIPGSLFDFALYFFHNYQALLAKGSGPYFYLPKTQSWQEAAWWSEVFSYAEDRFNLPRGTIKATLLIETLPAVFQMDEILHALRDHIVGLNCGRWDYIFSYIKTLKNYPDRVLPDRQAVTMDKPFLNAYSRLLIKTCHKRGAFAMGGMAAFIPSKDEEHNNQVLNKVKADKSLEANNGHDGTWIAHPGLADTAMAVFNDILGSRKNQLEVMREQDAPITADQLLAPCDGERTEEGMRANIRVAVQYIEAWISGNGCVPIYGLMEDAATAEISRTSIWQWIHHQKTLSNGKPVTKALFRQMLGEEMKVIASELGEERFSQGRFDDAARLMEQITTSDELIDFLTLPGYRLLA | 5.7 ± 1.2 h | 4.82 ± 0.056 h | 1.75 ± 0.022 h | 2.2 ± 0.35 h | 1.76 ± 0.22 h | 2.25 ± 0.18 h | 3.17 ± 0.25 h | 4.18 ± 0.32 h | 2.5 ± 1 h | 2.59 ± 0.19 h | 2.73 ± 0.2 h | 5.08 ± 0.14 h
